# Results taken from publication PMC7335163.
# Target: GFP-tagged R2910Q UNC80 mutant (mouse) (mouse) (UniProt Q8BLN6)
# Assay: co-IP; HEK293T co-transfected with NALCN or UNC79 and GFP-tagged UNC80 constructs; IP with anti-GFP, blot anti-NALCN or anti-UNC79; RIPA buffer (IP buffer with 0.5% deoxycholate and 0.1% SDS); 4 °C (Fig. 8a-c, f, g)
# Chain of UniProt Q8BLN6 (Q8BLN6 whole entry R2910Q): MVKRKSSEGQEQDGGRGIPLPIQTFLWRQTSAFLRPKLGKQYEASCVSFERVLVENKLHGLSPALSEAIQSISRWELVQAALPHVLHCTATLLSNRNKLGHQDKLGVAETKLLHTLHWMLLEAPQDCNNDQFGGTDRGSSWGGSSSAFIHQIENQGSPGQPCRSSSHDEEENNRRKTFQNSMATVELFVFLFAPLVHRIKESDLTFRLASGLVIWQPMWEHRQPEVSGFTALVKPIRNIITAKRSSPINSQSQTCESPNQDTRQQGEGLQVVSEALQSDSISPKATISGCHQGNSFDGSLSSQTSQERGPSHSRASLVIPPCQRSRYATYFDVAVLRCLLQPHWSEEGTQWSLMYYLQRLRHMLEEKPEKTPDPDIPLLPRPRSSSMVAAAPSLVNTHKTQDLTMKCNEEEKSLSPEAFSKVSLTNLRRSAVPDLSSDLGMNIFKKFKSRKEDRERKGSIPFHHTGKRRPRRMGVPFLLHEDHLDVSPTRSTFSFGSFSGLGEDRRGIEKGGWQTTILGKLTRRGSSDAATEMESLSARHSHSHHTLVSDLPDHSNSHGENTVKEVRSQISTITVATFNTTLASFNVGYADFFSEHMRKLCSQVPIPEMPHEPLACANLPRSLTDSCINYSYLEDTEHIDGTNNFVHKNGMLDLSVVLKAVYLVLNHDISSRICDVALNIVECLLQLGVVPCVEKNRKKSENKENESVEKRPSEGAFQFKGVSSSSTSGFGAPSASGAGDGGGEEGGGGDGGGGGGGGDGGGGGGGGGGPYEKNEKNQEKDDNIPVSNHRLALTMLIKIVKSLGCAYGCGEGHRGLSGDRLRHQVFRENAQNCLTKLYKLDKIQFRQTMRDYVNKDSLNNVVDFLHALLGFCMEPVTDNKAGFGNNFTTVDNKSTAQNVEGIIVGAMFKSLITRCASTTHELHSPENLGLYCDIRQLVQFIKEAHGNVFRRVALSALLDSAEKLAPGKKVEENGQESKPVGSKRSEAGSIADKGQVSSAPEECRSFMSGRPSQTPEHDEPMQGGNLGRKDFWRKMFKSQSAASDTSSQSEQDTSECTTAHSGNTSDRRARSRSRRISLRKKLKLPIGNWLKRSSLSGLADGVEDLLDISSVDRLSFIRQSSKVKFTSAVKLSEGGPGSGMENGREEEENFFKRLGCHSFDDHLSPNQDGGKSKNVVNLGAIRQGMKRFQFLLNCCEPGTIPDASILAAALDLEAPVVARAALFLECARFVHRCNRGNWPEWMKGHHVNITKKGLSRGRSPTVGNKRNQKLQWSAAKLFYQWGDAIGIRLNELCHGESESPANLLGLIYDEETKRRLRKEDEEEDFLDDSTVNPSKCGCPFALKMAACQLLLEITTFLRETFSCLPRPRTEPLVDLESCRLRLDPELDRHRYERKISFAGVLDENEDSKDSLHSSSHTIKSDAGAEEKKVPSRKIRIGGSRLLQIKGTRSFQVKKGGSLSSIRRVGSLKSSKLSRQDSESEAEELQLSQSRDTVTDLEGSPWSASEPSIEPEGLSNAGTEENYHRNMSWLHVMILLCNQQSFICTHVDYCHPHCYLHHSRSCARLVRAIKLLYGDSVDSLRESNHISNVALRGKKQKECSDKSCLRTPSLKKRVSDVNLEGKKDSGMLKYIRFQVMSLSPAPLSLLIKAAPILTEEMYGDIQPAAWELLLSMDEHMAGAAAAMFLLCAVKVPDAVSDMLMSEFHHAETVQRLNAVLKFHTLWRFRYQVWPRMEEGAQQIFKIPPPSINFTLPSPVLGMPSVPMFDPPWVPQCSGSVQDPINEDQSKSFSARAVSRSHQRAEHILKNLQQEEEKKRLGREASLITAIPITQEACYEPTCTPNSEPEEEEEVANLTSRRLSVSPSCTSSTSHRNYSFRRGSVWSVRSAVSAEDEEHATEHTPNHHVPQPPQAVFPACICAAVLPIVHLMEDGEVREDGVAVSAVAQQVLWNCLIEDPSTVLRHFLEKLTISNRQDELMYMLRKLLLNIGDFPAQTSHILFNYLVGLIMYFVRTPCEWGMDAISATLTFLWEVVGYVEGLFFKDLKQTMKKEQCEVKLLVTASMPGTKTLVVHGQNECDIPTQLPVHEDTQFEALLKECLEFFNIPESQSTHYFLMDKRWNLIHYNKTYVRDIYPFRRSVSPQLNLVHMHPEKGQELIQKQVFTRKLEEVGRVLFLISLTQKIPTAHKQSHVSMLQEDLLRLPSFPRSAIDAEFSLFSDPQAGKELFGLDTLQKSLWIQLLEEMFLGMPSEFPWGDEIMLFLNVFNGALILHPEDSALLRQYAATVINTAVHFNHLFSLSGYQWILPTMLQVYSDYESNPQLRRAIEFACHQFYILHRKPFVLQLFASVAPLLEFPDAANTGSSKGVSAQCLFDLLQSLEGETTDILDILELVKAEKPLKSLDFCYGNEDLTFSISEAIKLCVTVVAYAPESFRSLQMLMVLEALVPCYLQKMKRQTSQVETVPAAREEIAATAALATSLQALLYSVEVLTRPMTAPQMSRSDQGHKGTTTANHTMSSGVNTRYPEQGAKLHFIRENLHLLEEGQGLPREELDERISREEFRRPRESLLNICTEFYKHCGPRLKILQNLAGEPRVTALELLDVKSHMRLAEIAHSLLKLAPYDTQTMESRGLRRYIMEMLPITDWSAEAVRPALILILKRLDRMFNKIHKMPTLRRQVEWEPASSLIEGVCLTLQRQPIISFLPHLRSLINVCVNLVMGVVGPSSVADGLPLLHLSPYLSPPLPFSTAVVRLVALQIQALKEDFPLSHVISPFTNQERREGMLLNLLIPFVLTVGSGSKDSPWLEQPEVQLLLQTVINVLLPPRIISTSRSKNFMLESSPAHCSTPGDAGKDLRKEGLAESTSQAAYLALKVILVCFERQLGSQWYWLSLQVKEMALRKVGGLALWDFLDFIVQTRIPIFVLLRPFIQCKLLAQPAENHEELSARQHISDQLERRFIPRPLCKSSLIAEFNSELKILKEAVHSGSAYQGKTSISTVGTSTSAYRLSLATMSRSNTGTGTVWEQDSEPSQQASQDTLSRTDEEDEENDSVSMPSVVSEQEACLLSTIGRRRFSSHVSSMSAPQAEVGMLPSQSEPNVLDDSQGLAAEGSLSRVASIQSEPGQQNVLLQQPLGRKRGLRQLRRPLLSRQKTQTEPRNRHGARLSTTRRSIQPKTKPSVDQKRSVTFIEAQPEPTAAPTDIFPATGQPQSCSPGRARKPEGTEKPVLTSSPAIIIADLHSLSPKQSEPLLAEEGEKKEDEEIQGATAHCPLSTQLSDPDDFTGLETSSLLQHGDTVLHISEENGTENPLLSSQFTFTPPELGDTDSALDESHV
substance,measurement,value
"UNC79 (mouse), wild type, non-tagged, Q0KK59 1-2596",reduction of apparent UNC80–UNC79 affinity (co-precipitated UNC79) against WT UNC80,60%
